Test results taken from article PMC3101628 (Nature structural & molecular biology, 2011).
Numbering of substitutions follows the chain as printed. Names may count otherwise. Like-named read-outs stand apart in the source and are kept apart here.

T1: hRRM1 with the first 74 residues deleted (t-hRRM1) (human, UniProt P23921 75-792)
T1 sequence (looked up): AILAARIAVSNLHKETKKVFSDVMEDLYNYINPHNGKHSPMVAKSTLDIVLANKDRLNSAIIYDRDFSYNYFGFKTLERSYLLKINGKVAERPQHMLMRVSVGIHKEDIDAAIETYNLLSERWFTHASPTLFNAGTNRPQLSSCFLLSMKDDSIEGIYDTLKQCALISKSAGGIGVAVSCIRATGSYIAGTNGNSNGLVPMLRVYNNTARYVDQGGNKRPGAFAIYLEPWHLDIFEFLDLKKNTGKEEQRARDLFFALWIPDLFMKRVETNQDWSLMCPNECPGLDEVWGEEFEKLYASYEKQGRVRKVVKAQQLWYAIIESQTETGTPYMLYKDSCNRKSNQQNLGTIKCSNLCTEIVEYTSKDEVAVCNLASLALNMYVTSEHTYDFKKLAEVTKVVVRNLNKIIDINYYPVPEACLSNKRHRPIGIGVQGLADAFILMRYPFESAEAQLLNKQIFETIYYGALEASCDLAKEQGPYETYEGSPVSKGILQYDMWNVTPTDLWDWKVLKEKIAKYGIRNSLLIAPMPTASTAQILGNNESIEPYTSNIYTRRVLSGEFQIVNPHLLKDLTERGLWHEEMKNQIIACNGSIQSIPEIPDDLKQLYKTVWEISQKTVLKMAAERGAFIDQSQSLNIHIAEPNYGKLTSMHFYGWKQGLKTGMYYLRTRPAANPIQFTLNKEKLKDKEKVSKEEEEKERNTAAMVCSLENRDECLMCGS

B1: hRRM1 D16R (enzyme, human, UniProt P23921 1-792, looked up)
chain: MHVIKRDGRQERVMFRKITSRIQKLCYGLNMDFVDPAQITMKVIQGLYSGVTTVELDTLAAETAATLTTKHPDYAILAARIAVSNLHKETKKVFSDVMEDLYNYINPHNGKHSPMVAKSTLDIVLANKDRLNSAIIYDRDFSYNYFGFKTLERSYLLKINGKVAERPQHMLMRVSVGIHKEDIDAAIETYNLLSERWFTHASPTLFNAGTNRPQLSSCFLLSMKDDSIEGIYDTLKQCALISKSAGGIGVAVSCIRATGSYIAGTNGNSNGLVPMLRVYNNTARYVDQGGNKRPGAFAIYLEPWHLDIFEFLDLKKNTGKEEQRARDLFFALWIPDLFMKRVETNQDWSLMCPNECPGLDEVWGEEFEKLYASYEKQGRVRKVVKAQQLWYAIIESQTETGTPYMLYKDSCNRKSNQQNLGTIKCSNLCTEIVEYTSKDEVAVCNLASLALNMYVTSEHTYDFKKLAEVTKVVVRNLNKIIDINYYPVPEACLSNKRHRPIGIGVQGLADAFILMRYPFESAEAQLLNKQIFETIYYGALEASCDLAKEQGPYETYEGSPVSKGILQYDMWNVTPTDLWDWKVLKEKIAKYGIRNSLLIAPMPTASTAQILGNNESIEPYTSNIYTRRVLSGEFQIVNPHLLKDLTERGLWHEEMKNQIIACNGSIQSIPEIPDDLKQLYKTVWEISQKTVLKMAAERGAFIDQSQSLNIHIAEPNYGKLTSMHFYGWKQGLKTGMYYLRTRPAANPIQFTLNKEKLKDKEKVSKEEEEKERNTAAMVCSLENRDECLMCGS
B2: hRRM1 D57N (enzyme, human, UniProt P23921 1-792, looked up)
chain: B1 chain with R16D, D57N
B3: yeast RR2●RR4 hetero-dimer (ScRR2●ScRR4) (complex, S. cerevisiae)
chain 1: MPKETPSKAAADALSDLEIKDSKSNLNKELETLREENRVKSDMLKEKLSKDAENHKAYLKSHQVHRHKLKEMEKEEPLLNEDKERTVLFPIKYHEIWQAYKRAEASFWTAEEIDLSKDIHDWNNRMNENERFFISRVLAFFAASDGIVNENLVENFSTEVQIPEAKSFYGFQIMIENIHSETYSLLIDTYIKDPKESEFLFNAIHTIPEIGEKAEWALRWIQDADALFGERLVAFASIEGVFFSGSFASIFWLKKRGMMPGLTFSNELICRDEGLHTDFACLLFAHLKNKPDPAIVEKIVTEAVEIEQRYFLDALPVALLGMNADLMNQYVEFVADRLLVAFGNKKYYKVENPFDFMENISLAGKTNFFEKRVSDYQKAGVMSKSTKQEAGAFTFNEDF
chain 2: MEAHNQFLKTFQKERHDMKEAEKDEILLMENSRRFVMFPIKYHEIWAAYKKVEASFWTAEEIELAKDTEDFQKLTDDQKTYIGNLLALSISSDNLVNKYLIENFSAQLQNPEGKSFYGFQIMMENIYSEVYSMMVDAFFKDPKNIPLFKEIANLPEVKHKAAFIERWISNDDSLYAERLVAFAAKEGIFQAGNYASMFWLTDKKIMPGLAMANRNICRDRGAYTDFSCLLFAHLRTKPNPKIIEKIITEAVEIEKEYYSNSLPVEKFGMDLKSIHTYIEFVADGLLQGFGNEKYYNAVNPFEFMEDVATAGKTTFFEKKVSDYQKASDMSKSATPSKEINFDDDF
B4: human ribonucleotide reductase small subunit hRRM2 (enzyme, UniProt P31350 1-389, looked up)
chain: MLSLRVPLAPITDPQQLQLSPLKGLSLVDKENTPPALSGTRVLASKTARRIFQEPTEPKTKAAAPGVEDEPLLRENPRRFVIFPIEYHDIWQMYKKAEASFWTAEEVDLSKDIQHWESLKPEERYFISHVLAFFAASDGIVNENLVERFSQEVQITEARCFYGFQIAMENIHSEMYSLLIDTYIKDPKEREFLFNAIETMPCVKKKADWALRWIGDKEATYGERVVAFAAVEGIFFSGSFASIFWLKKRGLMPGLTFSNELISRDEGLHCDFACLMFKHLVHKPSEERVREIIINAVRIEQEFLTEALPVKLIGMNCTLMKQYIEFVADRLMLELGFSKVFRVENPFDFMENISLEGKTNFFEKRVGEYQRMGVMSSPTENSFTLDADF
B5: ScRR1 D182R (enzyme, S. cerevisiae)
chain: MYVYKRDGRKEPVQFDKITARISRLCYGLDPKHIDAVKVTQRIISGVYEGVTTIELDNLAAETCAYMTTVHPDYATLAARIAISNLHKQTTKQFSKVVEDLYRYVNAATGKPAPMISDDVYNIVMENKDKLNSAIVYDRDFQYSYFGFKTLERSYLLRINGQVAERPQHLIMRVALGIHGRRIEAALETYNLMSLKYFTHASPTLFNAGTPKPQMSSCFLVAMKEDSIEGIYDTLKECALISKTAGGIGLHIHNIRSTGSYIAGTNGTSNGLIPMIRVFNNTARYVDQGGNKRPGAFALYLEPWHADIFDFIDIRKNHGKEEIRARDLFPALWIPDLFMKRVEENGTWTLFSPTSAPGLSDCYGDEFEALYTRYEKEGRGKTIKAQKLWYSILEAQTETGTPFVVYKDACNRKSNQKNLGVIKSSNLCCEIVEYSAPDETAVCNLASVALPAFIETSEDGKTSTYNFKKLHEIAKVVTRNLNRVIDRNYYPVEEARKSNMRHRPIALGVQGLADTFMLLRLPFDSEEARLLNIQIFETIYHASMEASCELAQKDGPYETFQGSPASQGILQFDMWDQKPYGMWDWDTLRKDIMKHGVRNSLTMAPMPTASTSQILGYNECFEPVTSNMYSRRVLSGEFQVVNPYLLRDLVDLGIWDEGMKQYLITQNGSIQGLPNVPQELKDLYKTVWEISQKTIINMAADRSVYIDQSHSLNLFLRAPTMGKLTSMHFYGWKKGLKTGMYYLRTQAASAAIQFTIDQKIADQATENVADISNLKRPSYMPSSASYAASDFVPAAVTANATIPSLDSSSEASREASPAPTGSHSLTKGMAELNVQESKVEVPEVPAPTKNEEKAAPIVDDEETEFDIYNSKVIACAIDNPEACEMCSG
B6: S. cerevisiae ribonucleotide reductase RR1 (ScRR1), wild type (enzyme)
chain: B5 chain with R182D

Legend:
SEC [1] = biological target: the molecule itself; assay: SEC
SEC-MALS = biological target: the molecule itself; assay: SEC-MALS
SEC [2] = biological target: the molecule itself; assay: SEC; remark: listed apart in the source
SEC [3] = biological target: the molecule itself; assay: SEC; remark: listed apart in the source
[4] = biological target: B6; assay: SEC
[5] = biological target: T1, hRRM1 with the first 74 residues …; assay: SEC
SEC [6] = biological target: the molecule itself; assay: SEC; remark: listed apart in the source
[7] = biological target: the molecule itself
SEC [8] = biological target: the molecule itself; assay: SEC; remark: listed apart in the source

B1
stoichiometry N (SEC [1]): 6
stoichiometry N (SEC-MALS): 2

B2
stoichiometry N (SEC [2]): 6
stoichiometry N (SEC [3]): 2

B3
binding result [4]: binds

B4
binding result [5]: binds
stoichiometry N (SEC [6]): 2

B5
stoichiometry N [7]: 6

B6
stoichiometry N (SEC [8]): 6
